Patent publication EP4534102A1, “ANTIBODY DRUG CONJUGATE (ADC) TARGETING NECTIN 4 AND COMPRISING AN EXATECAN PAYLOAD” (Eli Lilly and Company, priority 2023, dated 2025)

Assay: Aggregation by SEC-HPLC
Format: physicochemical
Description: As determined by SEC-HPLC, less than 5% material was aggregated. […] (See Figure 2 and corresponding Brief Description). […] (See Figure 3 and corresponding Brief Description). In vitro cytotoxic activity was assessed for the HCT-116-2G10 clone expressing human nectin-4. (See Figure 4 and corresponding Brief Description).
As a comparator ADC, the HA22 anti-Nectin-4 mAb was conjugated to maleimidocaproyl-valine-citrulline-PABC-MMAE to generate enfortumab vedotin. Briefly, a 15 mg/mL solution of the HA22 in 10 mM acetate 1% sorbitol, 3% L-arginine, pH 5.0 was supplemented with a 20% volume of 0.1 M Tris, 25 mM EDTA and 750 mM NaCl, pH 8.4 to adjust the pH of the solution to 7.5, 5 mM EDTA and 150 mM sodium chloride. […] The mixture was stirred for 60 minutes at 5° C, then for 15 additional minutes following the addition of 1 molar equivalents of N-acetylcysteine relative to cysteine reactive linker-MMAE compound. Excess quenched cysteine reactive linker-payload and other reaction components were removed by ultrafiltration/diafiltration of the antibody drug conjugate (ADC) with 10 volumes of 20 mM histidine, pH 6.0. The drug-antibody ratio (DAR) according to LC-MS analysis was 3.79 toxins per conjugated mAb. As determined by SEC-HPLC, less than 1% material was aggregated.

With “enfortumab vedotin: HA22 anti-Nectin-4 mAb conjugated to maleimidocaproyl-valine-citrulline-PABC-MMAE; comparator ADC” the material aggregated was “less than 1%”.
